Test results taken from publication doi:10.1101/2022.04.21.489128.

Molecular target: wild-type FliM (Vibrio alginolyticus flagellar rotor C-ring protein) with an N-terminal His-tag (V. alginolyticus)
Experiment: SEC

wild-type FliM (Vibrio alginolyticus flagellar rotor C-ring protein) with an N-terminal His-tag (natural protein)
stoichiometry N: 2
